1 substance from patent publication US20210087288A1 can be followed below.

pKd: −log10 of the molar value.

The target of experiment [1] is Human FcRn (human) (UniProt P55899). As to the kind of experiment: SPR (BIAcore T200), antibody captured via anti-Fab, FcRn injected, pH 6, steady state.
Experiment [2] deals with Cynomolgus monkey FcRn (cynomolgus monkey) (UniProt Q8SPV9). The experiment is described as above.
Sequence of Cynomolgus monkey FcRn (cynomolgus monkey) (Q8SPV9 24-297 limits assumed): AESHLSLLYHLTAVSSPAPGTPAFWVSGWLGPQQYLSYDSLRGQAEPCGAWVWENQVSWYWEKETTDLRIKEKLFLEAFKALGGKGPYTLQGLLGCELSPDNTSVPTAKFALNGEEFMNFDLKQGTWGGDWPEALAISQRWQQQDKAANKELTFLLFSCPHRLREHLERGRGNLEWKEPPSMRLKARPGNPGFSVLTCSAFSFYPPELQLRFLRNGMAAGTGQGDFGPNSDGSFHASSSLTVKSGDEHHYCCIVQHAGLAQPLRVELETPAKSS

Sequence of Human FcRn (human) (P55899 24-297 limits assumed): as the sequence (Q8SPV9 24-297 limits assumed) above, with D39N, Q44E, S99G, G189S, N190S, M217L, T269S counted along it

For the substance Anti-gD.hIgG1 (antibody), the values for the pKd in experiment [1] and in experiment [2] were 6.15 and 6.05, respectively.
